Measurements: patent publication US6255088A, “Enzymatic sulfation of biomolecules” (The Scripps Research Institute, priority 1999, dated 2001)

B1: βAST-IV (Rattus norvegicus) (protein)
chain: MEFSRPPLVHVKGIPLIKYFAETIGPLQNFTAWPDDLLISTYPKSGTTWMSEILDMIYQGGKLEKCGRAPIYARVPFLEFKCPGVPSGLETLEETPAPRLLKTHLPLSLLPQSLLDQKVKVIYIARNAKDVVVSYYNFYNMAKLHPDPGTWDSFLENFMDGEVSYGSWYQHVKEWWELRHTHPVLYLFYEDIKENPKREIKKILEFLGRSLPEETVDSIVHHTSFKKMKENCMTNYTTIPTEIMDHNVSPFMRKGTTGDWKNTFTVAQNERFDAHYAKTMTDCDFKFRCEL
notes: made in house; host or cells: E. coli BL21(DE3)
B2: NodST (Sinorhizobium meliloti 1021) (protein)
chain: MTHSTLPPQPFAILAMPRTGTHYLEELVNEHPNVLSNGELLNTYDTNWPDKERLLLSDRELLERAFLRYPPHSDKKVTHVGCKINEPQFQERPSFFAELTAWPGLKVILVIRRNTLESLRSFVQARQTRQWLKFKSDSSAPPPPVMLPFATCEAYFKAADDFHARVVYAFDSSRIRLIEYERLLRDPVPCVATVLDFLGAPALQLADRGILRRQETRPLDQTVRNFHELRVHFANGPYARFFELAND

Tests used:
[1] = substrate: Nc1ncnc2c1ncn2[C@@H]1O[C@H](COP(=O)(O)O)[C@@H](OP(=O)(O)O)[C@H]1O; assay: Reverse-physiological reaction of βAST-IV (PAPS from PAP and p-nitrophenyl sulfate); assay type: biochemical, rat; conditions: other: 10 mM p-nitrophenyl sulfate, pH 7.0, 25° C., FIG. 6 legend
Protocol: All capillary zone electrophoresis (CZE) was run in 0.23 M borate in running buffer at pH 7.8. The column was pre-washed with H2 O (1 min), 1 N NaOH (1 min), and running buffer (2 min). The sample was pressure injected at 20 psi sec and electrophoresis was run with 20.0 kV (- to +) at 20° C. with detection at 260 nm. CZE of 1 mM standards PAPS, PAP, and 3'-adenosine monophosphate (3'-AMP) were run to determine retention times. The reverse-physiological reaction assay mixture, a 500 μL solution containing 50 mM bis-tris propane-HCl buffer at pH 7.0, 1 mM 2-mercaptoethanol, 10 mM p-nitrophenyl sulfate, and 1 mM PAP at 25° C., was subjected to CZE prior to addition of enzyme (t=0). 5 mU βAST-IV was added and CZE was repeated 30 minutes after initiation. The reaction was then diluted 100-fold and CZE was run again. A 2.0 μL internal standard of 10 mM PAPS was added, and CZE was repeated.
βAST-IV activity in the reverse-physiological reaction was determined at 25° C. with a total volume of 500 μL. The reverse-physiological assay above was used with varying PAP concentration (15.6, 31.3, 62.5, 125, 250, 500 μM). Measurement of initial velocity was conducted over 10 seconds at 400 nm, and an extinction coefficient of 1064 was used to calculate p-nitrophenol concentration at pH 7.0. […]

[2] = substrate: CC(=O)N[C@H]1[C@H](O[C@H]2[C@H](O)[C@@H](NC(C)=O)C(O)O[C@@H]2CO)O[C@H](CO)[C@@H](O[C@@H]2O[C@H](CO)[C@@H](O)[C@H](O)[C@H]2NC(C)=O)[C@@H]1O; assay: purified protein, by the assay type; conditions: pH 7.0
[3] = substrate: CC(=O)N[C@H]1[C@H](O[C@H]2[C@H](O)[C@@H](NC(C)=O)C(O)O[C@@H]2CO)O[C@H](CO)[C@@H](O[C@@H]2O[C@H](CO)[C@@H](O[C@@H]3O[C@H](CO)[C@@H](O)[C@H](O)[C@H]3NC(C)=O)[C@H](O)[C@H]2NC(C)=O)[C@@H]1O; assay: Continuous spectrophotometric coupled-enzyme assay of NodST with βAST-IV PAPS regeneration; assay type: biochemical, Rhizobium melioti; conditions: other: apparent value, coupled assay, 20 μM PAPS, pH 7.0
Protocol: (§1) 100 mM bis-tris propane-HCl, pH 7.0, 5 mM 2-mercaptoethanol, 20 μM PAPS, 2 mM p-nitrophenyl sulfate, 3.0 mU NodST, 6.4 mU β-AST IV, and substrate are combined to a total volume of 500 μL. Because commercial PAPS contains significant amounts of PAP, the assay solution is incubated for 30 minutes at 20° C. prior to addition of substrate. The evolution of p-nitrophenol is monitored at 400 nm for 10 minutes.
(§2) All reactions were run in a total volume of 500 μL at 25° C. […] The amount of NodST added to each series of acceptor concentrations is varied over 1.2, 1.8, 3.0, and 4.2 mU. Because commercial PAPS contains significant amounts of PAP, the assay solution is incubated for 30 minutes at 20° C. prior to addition of substrate. The evolution of p-nitrophenol is monitored at 400 nm for 10 minutes.
(§3) 3.0 mU of NodST was used in each reaction. The Km for each series of PAP concentrations was calculated and the values were compared.

[4] = substrate: CC(=O)N[C@H]1[C@H](O[C@H]2[C@H](O)[C@@H](NC(C)=O)[C@H](O[C@H]3[C@H](O)[C@@H](NC(C)=O)C(O)O[C@@H]3CO)O[C@@H]2CO)O[C@H](CO)[C@@H](O[C@@H]2O[C@H](CO)[C@@H](O[C@@H]3O[C@H](CO)[C@@H](O)[C@H](O)[C@H]3NC(C)=O)[C@H](O)[C@H]2NC(C)=O)[C@@H]1O; assay: as above; assay type: biochemical, Rhizobium melioti; conditions: other: coupled assay; pH 7.0
Protocol: as §1, §2, §3

[5] = other: apparent value, coupled assay, 20 μM PAPS

| Protein | Km [1] [µM] | Km ([2]; other: 20, 40 and 100 μM PAPS, all three within 10% variation, 3.0 mU NodST) [µM] | Km [2, 5] [µM] | kcat [2, 5] [s⁻¹] | Km [3] [µM] | kcat [3] [s⁻¹] | Km [4] [μμM] |
| --- | --- | --- | --- | --- | --- | --- | --- |
| B1 | 26.4 ± 3.4 |  |  |  |  |  |  |
| B2 |  | 243 | 103 | 0.458 | 20.4 ± 3.6 | 0.328 ± 0.013 | 98.1 |
